Residue numbers refer to the chain shown, from its start. Numbers in names are those of the source. Ends that are not written are not given here. * marks the point of attachment. βGlcNAc = CC(=O)N[C@@H]1[C@@H](O)[C@H](O)[C@@H](CO)O[C@H]1*
T1: full-length human O-GlcNAcase (hOGA) (human, UniProt O60502 1-916)
T1 sequence (looked up): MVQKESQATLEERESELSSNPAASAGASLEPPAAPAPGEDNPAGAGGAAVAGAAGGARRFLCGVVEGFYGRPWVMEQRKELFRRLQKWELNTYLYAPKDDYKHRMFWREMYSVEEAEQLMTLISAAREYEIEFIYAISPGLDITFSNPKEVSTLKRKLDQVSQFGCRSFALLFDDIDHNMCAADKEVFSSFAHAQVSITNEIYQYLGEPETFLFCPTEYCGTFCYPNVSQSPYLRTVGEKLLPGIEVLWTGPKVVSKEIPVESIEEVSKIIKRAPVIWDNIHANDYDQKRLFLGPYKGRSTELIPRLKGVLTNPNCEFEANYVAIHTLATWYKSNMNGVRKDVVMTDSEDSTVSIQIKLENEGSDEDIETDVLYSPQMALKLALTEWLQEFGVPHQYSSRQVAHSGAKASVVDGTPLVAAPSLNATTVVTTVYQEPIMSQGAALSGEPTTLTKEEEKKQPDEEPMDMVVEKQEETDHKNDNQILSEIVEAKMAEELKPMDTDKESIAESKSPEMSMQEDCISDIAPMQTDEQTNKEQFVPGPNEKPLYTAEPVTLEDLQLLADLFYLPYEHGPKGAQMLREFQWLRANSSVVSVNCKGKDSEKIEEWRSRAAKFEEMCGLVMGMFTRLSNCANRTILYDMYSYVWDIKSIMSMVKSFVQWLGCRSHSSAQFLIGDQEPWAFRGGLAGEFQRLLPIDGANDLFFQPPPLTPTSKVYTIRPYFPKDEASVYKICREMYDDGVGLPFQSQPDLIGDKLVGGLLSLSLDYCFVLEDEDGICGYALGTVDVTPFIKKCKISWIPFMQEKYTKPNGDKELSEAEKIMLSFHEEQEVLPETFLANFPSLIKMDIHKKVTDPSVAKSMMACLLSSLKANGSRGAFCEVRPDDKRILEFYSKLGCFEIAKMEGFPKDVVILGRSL

B1: OGA_(cryst) (D175N) (domain or fragment, human)
chain: FLCGVVEGFYGRPWVMEQRKELFRRLQKWELNTYLYAPKDDYKHRMFWREMYSVEEAEQLMTLISAAREYEIEFIYAISPGLDITFSNPKEVSTLKRKLDQVSQFGCRSFALLFDNIDHNMCAADKEVFSSFAHAQVSITNEIYQYLGEPETFLFCPTEYCGTFCYPNVSQSPYLRTVGEKLLPGIEVLWTGPKVVSKEIPVESIEEVSKIIKRAPVIWDNIHANDYDQKRLFLGPYKGRSTELIPRLKGVLTNPNCEFEANYVAIHTLATWYKSNMNGVRKDVVMTDSEDSTVSIQIKLENEGSDEDIETDVLYSPQMALKLALTEWLQEFGVPHQYSSRGGGGSGGGGSGGGGSVTLEDLQLLADLFYLPYEHGPKGAQMLREFQWLRANSSVVSVNCKGKDSEKIEEWRSRAAKFEEMCGLVMGMFTRLSNCANRTILYDMYSYVWDIKSIMSMVKSFVQWLGCRSHSSAQFLIGDQEPWAFRGGLAGEFQRLLPIDGANDLFFQ
B2: OGA_(cryst) (truncated hOGA, residues 60-704 with residues 401-552 replaced by a 15-residue glycine-serine linker) (domain or fragment, human)
chain: B1 chain with N116D

Assays:
[1] = in vivo; cited from earlier work
OGA_(cryst) (D175N) = molecular target: B1; experiment: crystal structure
[2] = molecular target: T1, full-length human O-GlcNAcase (hOGA); experiment: glycopeptide competition assay
crystal structure = molecular target: the molecule itself; experiment: crystal structure
AUC = molecular target: the molecule itself; experiment: AUC

Q: For CCN=C1N[C@@H]2[C@@H](O)[C@H](O)[C@@H](CO)O[C@@H]2S1 [thiamet-G], which “blood–brain barrier crossing” value [1] is on record?
A: can cross the blood–brain barrier

Q: Does Ac-QLWVDS(βGlcNAc)TPPPG [O-GlcNAcylated p53 peptide Ac-QLWVDS(O-GlcNAc)TPPPG] bind (OGA_(cryst) (D175N))?
A: binds

Q: Does Ac-QLWVDS(βGlcNAc)TPPPG [O-GlcNAcylated p53 peptide Ac-QLWVDS(O-GlcNAc)TPPPG] bind [2]?
A: binds

Q: Does B1 bind (crystal structure)?
A: binds

Q: Which “stoichiometry N” value (AUC) does the source give for B2 here?
A: 2

Reference: article PMC8171356 (Nature structural & molecular biology, 2017)
